# Reference: doi:10.1101/2025.11.11.687647 (bioRxiv, 2025)
# B1: Mycobacterium tuberculosis pyruvate carboxylase (MtPC), full-length (enzyme)
# chain: MFSKVLVANRGEIAIRAFRAAYELGVGTVAVYPYEDRNSQHRLKADESYQIGDIGHPVHAYLSVDEIVATARRAGADAIYPGYGFLSENPDLAAACAAAGISFVGPSAEVLELAGNKSRAIAAAREAGLPVLMSSAPSASVDELLSVAAGMPFPLFVKAVAGGGGRGMRRVGDIAALPEAIEAASREAESAFGDPTVYLEQAVINPRHIEVQILADNLGDVIHLYERDCSVQRRHQKVIELAPAPHLDAELRYKMCVDAVAFARHIGYSCAGTVEFLLDERGEYVFIEMNPRVQVEHTVTEEITDVDLVASQLRIAAGETLEQLGLRQEDIAPHGAALQCRITTEDPANGFRPDTGRISALRTAGGAGVRLDGSTNLGAEISPYFDSMLVKLTCRGRDLPTAVSRARRAIAEFRIRGVSTNIPFLQAVLDDPDFRAGRVTTSFIDERPQLLTARASADRGTKILNFLADVTVNNPYGSRPSTIYPDDKLPDLDLRAAPPAGSKQRLVKLGPEGFARWLRESAAVGVTDTTFRDAHQSLLATRVRTSGLSRVAPYLARTMPQLLSVECWGGATYDVALRFLKEDPWERLATLRAAMPNICLQMLLRGRNTVGYTPYPEIVTSAFVQEATATGIDIFRIFDALNNIESMRPAIDAVRETGSAIAEVAMCYTGDLTDPGEQLYTLDYYLKLAEQIVDAGAHVLAIKDMAGLLRPPAAQRLVSALRSRFDLPVHLHTHDTPGGQLASYVAAWHAGADAVDGAAAPLAGTTSQPALSSIVAAAAHTEYDTGLSLSAVCALEPYWEALRKVYAPFESGLPGPTGRVYHHEIPGGQLSNLRQQAIALGLGDRFEEIEEAYAGADRVLGRLVKVTPTSKVVGDLALALVGAGVSADEFASDPARFGIPESVLGFLRGELGDPPGGWPEPLRTAALAGRGAARPTAQLAADDEIALSSVGAKRQATLNRLLFPSPTKEFNEHREAYGDTSQLSANQFFYGLRQGEEHRVKLERGVELLIGLEAISEPDERGMRTVMCILNGQLRPVLVRDRSIASAVPAAEKADRGNPGHIAAPFAGVVTVGVCVGERVGAGQTIATIEAMKMEAPITAPVAGTVERVAVSDTAQVEGGDLLVVVS
# Target: the molecule itself
# Experiment: SEC
protein,measurement,value
B1,stoichiometry N,4
